These results are taken from PMC5156300 (mBio, 2016).

The assay has as its target T1, NP from influenza virus A/WSN/33 with a C-terminal His tag (Influenza A virus A/WSN/33), P15682.
T1 chain: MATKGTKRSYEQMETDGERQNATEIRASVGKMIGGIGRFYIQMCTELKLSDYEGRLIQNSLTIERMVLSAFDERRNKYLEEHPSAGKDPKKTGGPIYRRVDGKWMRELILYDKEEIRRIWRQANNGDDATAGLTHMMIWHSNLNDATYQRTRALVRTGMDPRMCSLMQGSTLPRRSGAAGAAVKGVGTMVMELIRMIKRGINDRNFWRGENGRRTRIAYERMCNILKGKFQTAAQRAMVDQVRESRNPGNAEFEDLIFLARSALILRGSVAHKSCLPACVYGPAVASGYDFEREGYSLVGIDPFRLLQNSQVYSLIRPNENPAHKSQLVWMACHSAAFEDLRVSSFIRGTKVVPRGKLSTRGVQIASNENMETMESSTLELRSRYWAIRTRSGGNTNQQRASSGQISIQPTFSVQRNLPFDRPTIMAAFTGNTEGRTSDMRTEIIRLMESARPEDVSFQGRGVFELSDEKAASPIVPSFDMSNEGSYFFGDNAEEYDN
The assay can be described thus: crystal structure. Conditions: remark: other sources report otherwise.

B1: NP from influenza virus A/WSN/33 with a C-terminal His tag, P15682 1-498 (natural protein)
chain: MATKGTKRSYEQMETDGERQNATEIRASVGKMIGGIGRFYIQMCTELKLSDYEGRLIQNSLTIERMVLSAFDERRNKYLEEHPSAGKDPKKTGGPIYRRVDGKWMRELILYDKEEIRRIWRQANNGDDATAGLTHMMIWHSNLNDATYQRTRALVRTGMDPRMCSLMQGSTLPRRSGAAGAAVKGVGTMVMELIRMIKRGINDRNFWRGENGRRTRIAYERMCNILKGKFQTAAQRAMVDQVRESRNPGNAEFEDLIFLARSALILRGSVAHKSCLPACVYGPAVASGYDFEREGYSLVGIDPFRLLQNSQVYSLIRPNENPAHKSQLVWMACHSAAFEDLRVSSFIRGTKVVPRGKLSTRGVQIASNENMETMESSTLELRSRYWAIRTRSGGNTNQQRASSGQISIQPTFSVQRNLPFDRPTIMAAFTGNTEGRTSDMRTEIIRLMESARPEDVSFQGRGVFELSDEKAASPIVPSFDMSNEGSYFFGDNAEEYDN
Consider B1, for which the stoichiometry N came to 3.

For orientation: stoichiometry N means the number of molecules, sites or subunits per partner or assembly.
